Patent US20260176324A1 (published 2026)
Changes are numbered by the printed parent chain.

T1: KRAS G12V peptide on HLA-A*11:01 (human)
T1 peptide: VVVGAVGVGK

T2: KRAS G12V peptide on HLA-A*11:01 (human)
T2 peptide: VVGAVGVGK

B1: nwTCR-2595 (TCR, V domains shown)
Valpha: ILNVEQSPQSLHVQEGDSTNFTCSFPSSNFYALHWYRWETAKSPEALFVMTLNGDEKKKGRISATLNTKEGYSYLYIKGSQPEDSATYLCAFNNQGGKLIFGQGTELSVKP
Vbeta: EAQVTQNPRYLITVTGKKLTVTCSQNMNHEYMSWYRQDPGLGLRQIYYSMNVEVTDKGDVPEGYKVSRKEKRNFPLILESPSPNQTSLYFCASSSGTGGGAEAFFGQGTRLTVV
B2: nwTCR-1708 (TCR, V domains shown)
Valpha: QKEVEQNSGPLSVPEGAIASLNCTYSDRGSQSFFWYRQYSGKSPELIMFIYSNGDKEDGRFTAQLNKASQYVSLLIRDSQPSDSATYLCAVNMPGNMLTFGGGTRLMVKP
Vbeta: DARVTQTPRDKVTEMGQEVTMRCQPILGHNTVFWYRQTMMQGLELLAYFRNRAPLDDSGMPKDRFSAEMPDATLATLKIQPSEPRDSAVYFCASGPEGLDNEQFFGPGTRLTVL
B3: nwTCR-0127 (TCR, V domains shown)
Valpha: DQQVKQNSPSLSVQEGRISILNCDYTNSMFDYFLWYKKYPAEGPTFLISISSIKDKNEDGRFTVFLNKSAKHLSLHIVPSQPGDSAVYFCAGYQGGYKLSFGAGTTVTVRA
Vbeta: EAQVTQNPRYLITVTGKKLTVTCSQNMNHEYMSWYRQDPGLGLRQIYYSMNVEVTDKGDVPEGYKVSRKEKRNFPLILESPSPNQTSLYFCASSTRDRDNEQFFGPGTRLTVL
B4: nwTCR-0126 (TCR, V domains shown)
Valpha: AQKVTQAQTEISVVEKEDVTLDCVYETRDTTYYLFWYKQPPSGELVFLIRRNSFDEQNEISGRYSWNFQKSTSSFNFTITASQVVDSAVYFCALSDPRYSGGGADGLTFGKGTHLIIQP
Vbeta: DSGVTQTPKHLITATGQRVTLRCSPRSGDLSVYWYQQSLDQGLQFLIQYYNGEERAKGNILERFSAQQFPDLHSELNLSSLELGDSALYFCASSPRGGDSILDTQYFGPGTRLTVL
B5: nwTCR-2563 (TCR, V domains shown)
Valpha: SQQGEEDPQALSIQEGENATMNCSYKTSINNLQWYRQNSGRGLVHLILIRSNEREKHSGRLRVTLDTSKKSSSLLITASRAADTASYFCATDRTGGYNKLIFGAGTRLAVHP
Vbeta: ETGVTQSPTHLIKTRGQQVTLRCSSQSGHNTVSWYQQALGQGPQFIFQYYREEENGRGNFPPRFSGLQFPNYSSELNVNALELDDSALYLCASSLQTGDEQYFGPGTRLTVT
B6: nwTCR-0125 (TCR, V domains shown)
Valpha: AQKVTQAQTEISVVEKEDVTLDCVYETRDTTYYLFWYKQPPSGELVFLIRRNSFDEQNEISGRYSWNFQKSTSSFNFTITASQVVDSAVYFCARDQTGANNLFFGTGTRLTVIP
Vbeta: DVKVTQSSRYLVKRTGEKVFLECVQDMDHENMFWYRQDPGLGLRLIYFSYDVKMKEKGDIPEGYSVSREKKERFSLILESASTNQTSMYLCASSPPHLASGASTDTQYFGPGTRLTVL
B7: nwTCR-1862 (TCR, V domains shown)
Valpha: GEDVEQSLFLSVREGDSSVINCTYTDSSSTYLYWYKQEPGAGLQLLTYIFSNMDMKQDQRLTVLLNKKDKHLSLRIADTQTGDSAIYFCAERGTDSWGKLQFGAGTQVVVTP
Vbeta: GAVVSQHPSWVICKSGTSVKIECRSLDFQATTMFWYRQFPKQSLMLMATSNEGSKATYEQGVEKDKFLINHASLTLSTLTVTSAHPEDSSFYICSARFANYYEQYFGPGTRLTVT
B8: nwTCR-2308 (TCR, V domains shown)
Valpha: KDQVFQPSTVASSEGAVVEIFCNHSVSNAYNFFWYLHFPGCAPRLLVKGSKPSQQGRYNMTYERFSSSLLILQVREADAAVYYCAGSNDYKLSFGAGTTVTVRA
Vbeta: EAQVTQNPRYLITVTGKKLTVTCSQNMNHEYMSWYRQDPGLGLRQIYYSMNVEVTDKGDVPEGYKVSRKEKRNFPLILESPSPNQTSLYFCASSTSPYNEQFFGPGTRLTVL
B9: nwTCR-2241 (TCR, V domains shown)
Valpha: ELKVEQNPLFLSMQEGKNYTIYCNYSTTSDRLYWYRQDPGKSLESLFVLLSNGAVKQEGRLMASLDTKARLSTLHITAAVHDLSATYFCAVDKAAGNKLTFGGGTRVLVKP
Vbeta: GEEVAQTPKHLVRGEGQKAKLYCAPIKGHSYVFWYQQVLKNEFKFLISFQNENVFDETGMPKERFSAKCLPNSPCSLEIQATKLEDSAVYFCASSPHHRYEQYFGPGTRLTVT
B10: nwTCR-2561 (TCR, V domains shown)
Valpha: GNSVTQMEGPVTLSEEAFLTINCTYTATGYPSLFWYVQYPGEGLQLLLKATKADDKGSNKGFEATYRKETTSFHLEKGSVQVSDSAVYFCALPAGGGADGLTFGKGTHLIIQP
Vbeta: GAGVSQSPSNKVTEKGKDVELRCDPISGHTALYWYRQSLGQGLEFLIYFQGNSAPDKSGLPSDRFSAERTGGSVSTLTIQRTQQEDSAVYLCASSFGTSGDQYEQYFGPGTRLTVT
B11: nwTCR-2424 (TCR, V domains shown)
Valpha: QKEVEQNSGPLSVPEGAIASLNCTYSDRGSQSFFWYRQYSGKSPELIMFIYSNGDKEDGRFTAQLNKASQYVSLLIRDSQPSDSATYLCARKKTSYDKVIFGPGTSLSVIP
Vbeta: DSGVTQTPKHLITATGQRVTLRCSPRSGDLSVYWYQQSLDQGLQFLIQYYNGEERAKGNILERFSAQQFPDLHSELNLSSLELGDSALYFCASSLGDSEQFFGPGTRLTVL
B12: nwTCR-2310 (TCR, V domains shown)
Valpha: SQQGEEDPQALSIQEGENATMNCSYKTSINNLQWYRQNSGRGLVHLILIRSNEREKHSGRLRVTLDTSKKSSSLLITASRAADTASYFCATDGGGGADGLTFGKGTHLIIQP
Vbeta: DSGVTQTPKHLITATGQRVTLRCSPRSGDLSVYWYQQSLDQGLQFLIQYYNGEERAKGNILERFSAQQFPDLHSELNLSSLELGDSALYFCASSLHRDSDTEAFFGQGTRLTVV
B13: nwTCR-2390 (TCR, V domains shown)
Valpha: B12 Valpha with G93S
Vbeta: B12 Vbeta with L95H, H96G, D100T, T101D, E102T, A103Q, F104Y, Q107P, V114L
B14: nwTCR-2392 (TCR, V domains shown)
Valpha: DQQVKQNSPSLSVQEGRISILNCDYTNSMFDYFLWYKKYPAEGPTFLISISSIKDKNEDGRFTVFLNKSAKHLSLHIVPSQPGDSAVYFCAASYAGSARQLTFGSGTQLTVLP
Vbeta: GAGVSQSPSNKVTEKGKDVELRCDPISGHTALYWYRQRLGQGLEFLIYFQGNSAPDKSGLPSDRFSAERTGESVSTLTIQRTQQEDSAVYLCASSPGGNYGYTFGSGTRLTVV
B15: nwTCR-2629 (TCR, V domains shown)
Valpha: AQSVTQLDSHVSVSEGTPVLLRCNYSSSYSPSLFWYVQHPNKGLQLLLKYTSAATLVKGINGFEAEFKKSETSFHLTKPSAHMSDAAEYFCVVSVWTDKLIFGTGTRLQVFP
Vbeta: GAVVSQHPSWVICKSGTSVKIECRSLDFQATTMFWYRQFPKQSLMLMATSNEGSKATYEQGVEKDKFLINHASLTLSTLTVTSAHPEDSSFYICSANRDFGIYEQYFGPGTRLTVT

Biological target: T1, KRAS G12V peptide on HLA-A*11:01
Test: cytokine release
Protocol: (§1) The affinity assay of TCR-T cells was performed as follows. Antigen-presenting cells (HLA-A*11:01 overexpressing T2 cells or K562 cells) were collected, and counted. […] 1 mL of cell suspension was added to each well of a 24-well plate, respectively. […] The cells were incubated in an incubator (37° C., 5% CO₂) for 2 h. After incubation, the antigen-presenting cells were collected and washed, and 100 μl of the antigen-presenting cells at 1E6/mL were added to corresponding wells of 96-well plates. […] Various nwTCR-T cells were co-cultured with the antigen-presenting cells (37° C., 5% CO₂) for 16 h respectively.

Binding result, recognises:
B1

Biological target: T2, KRAS G12V peptide on HLA-A*11:01
Test: cytokine release
Protocol: as §1

Binding result, recognises:
B2
B3
B4
B5
B6

Biological target: T1, KRAS G12V peptide on HLA-A*11:01
Test: multimer staining

Binding result, recognises:
B2
B7
B3
B4
B8
B5
B9
B6

Biological target: T2, KRAS G12V peptide on HLA-A*11:01
Test: multimer staining

Binding result, recognises:
B10
B11
B12
B13
B14
B1
B15
